“Also recorded” adds a separate entry of the source. Where two headings read alike, the source gives them in different places.
T1: EpCAM (Homo sapiens, UniProt P16422)
T1 construct: HEK293T cells were transfected with full length or EGF like-domain deletion mutant EpCAM-V5; V5; expressed in transfected cells; host or cells: HEK293T
T1 sequence (P16422 24-314): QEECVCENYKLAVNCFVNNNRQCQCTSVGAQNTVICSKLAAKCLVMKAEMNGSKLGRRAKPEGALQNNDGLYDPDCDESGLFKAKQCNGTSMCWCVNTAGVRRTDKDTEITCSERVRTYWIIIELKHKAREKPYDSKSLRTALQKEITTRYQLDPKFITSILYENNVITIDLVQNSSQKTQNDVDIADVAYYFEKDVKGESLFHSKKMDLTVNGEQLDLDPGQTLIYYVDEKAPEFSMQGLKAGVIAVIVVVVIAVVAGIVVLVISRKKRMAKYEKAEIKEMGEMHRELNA

B1: EpAb2-6: anti-EpCAM (EpEX) neutralizing monoclonal antibody produced in mice by hybridoma; VH SEQ ID NO: 15, VL SEQ ID NO: 16 (antibody, V domains shown)
VH: VKLQESGPELKKPGETVKISCKASGYTFTDYSMHWVKQAPGKGLKWMGWINTETGEPTYADDFKGRFAFSLETSASTAYLQINNLKNEDTATYFCARTAVYWGQGTTVTVSS
VL: DIQMTQSPSSLSASLGERVSLTCRASQEISVSLSWLQQEPDGTIKRLIYATSTLDSGVPKRFSGSRSGSDYSLTISSLESEDFVDYYCLQYASYPWTFGGGTKLEIK

Key:
EpCAM [1] = target: T1, EpCAM; conditions: general description of other anti-EpCAM antibodies; cited from earlier work
EpCAM [2] = target: T1, EpCAM; assay: Antibody binding to EpCAM wild-type, deletion and point mutants in HEK293T cells (immunofluorescence, flow cytometry, cellular ELISA); conditions: EGF-like domain deletion and point mutants
Procedure: FIGS. 18A to 18G. […] HEK293T cells were transfected with full length or EGF like-domain deletion mutant EpCAM-V5. Antibody binding was assessed by (FIG. 8A) Western blotting, (FIG. 8B) flow cytometry, and (FIG. 8C) immunofluorescence. (FIG. 8D) EpCAM mutants were constructed with amino acid substitutions in the EGF-I (Y32A) and EGF-II (L94A, Y95A, or D96A) domains. EpCAM wild-type and mutant proteins were expressed in HEK293T cells. Binding of MT201, EpAb2-6 and EpAb23-1 to EpCAM wild-type and mutants were evaluated by (FIG. 8E) immunofluorescence, (FIG. 8F) flow cytometry, and (FIG. 8G) cellular ELISA. All data are presented as mean±SEM. *, p<0.05; **, p<0.01.
Here, we wanted to determine whether the antibody binds to EpCAM at both EGF-like domains of EpEX (FIG. 18A, FIG. 18B, FIG. 18C). To confirm that EpAb2-6 recognizes the LYD motif in EpCAM, we constructed cDNA sequences encoding the first (aa 27-59; EGF-I domain) and second (aa 66-135; EGF-II/TY domain) EGF-like repeats of EpCAM. PCR-based site-directed mutagenesis was then used to introduce mutations into each domain (FIG. 18D). The reactivity of EpAb2-6 antibody toward these EpCAM mutants was evaluated by immunofluorescence (FIG. 18E), flow cytometry (FIG. 18F), and cellular ELISA (FIG. 18G).

Row | Molecule | EpCAM domains bound (EpCAM [1]) | EpCAM domains bound (EpCAM [2])
1 | MT201: adecatumumab, a human anti-EpCAM antibody that was subjected to clinical trials [reference compound] | target only the well-described EGF I domain of EpCAM; also recorded: binding to domain I only | 
2 | B1 |  | binds to the EGF-I and EGF-II domains of EpEX; also recorded: binds to both EGF-like domain I and II of EpCAM

From patent publication US20250129146A1, “COMBINED CANCER THERAPY WITH AN EPITHELIAL CELL ADHESION MOLECULE (EPCAM) INHIBITOR AND A WNT INHIBITOR” (ACADEMIA SINICA, priority 2021, published 2025)
